# Measurements as given in patent US20190300590A1 (PROTAGONIST THERAPEUTICS, published 2019).
# Bridges are numbered along the chain shown (N, C = ends). [ ]: non-standard residue; d: D form. PEG1 = NCCOCCC(=O)O; AEA = NCCOCC(=O)O
# T1: IL23R_huFC (human, UniProt Q5VWK5 24-353)
# T1 sequence (looked up): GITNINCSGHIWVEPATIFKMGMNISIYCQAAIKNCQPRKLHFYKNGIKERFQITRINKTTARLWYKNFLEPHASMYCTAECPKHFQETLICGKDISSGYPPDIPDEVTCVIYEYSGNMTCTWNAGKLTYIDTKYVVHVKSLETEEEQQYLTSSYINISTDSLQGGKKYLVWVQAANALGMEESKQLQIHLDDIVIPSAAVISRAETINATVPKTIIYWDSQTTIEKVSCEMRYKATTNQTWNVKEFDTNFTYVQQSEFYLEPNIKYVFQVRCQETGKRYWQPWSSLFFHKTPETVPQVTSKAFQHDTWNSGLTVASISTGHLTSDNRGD
# Target: T1, IL23R_huFC
# Experiment: IL23-IL23R competitive ELISA
row,Binder,IC50
1,CADWVCYWHTFGAK (Ac-; [β-Ala]; [(D)Lys]; disulfide) [Ac-CADWVCYWHTFG-[β-Ala]-[(D)Lys]-OH],< 500 nM
2,Ac-CADWVCYWHTFGP[dK]-OH (disulfide 1-6 (inferred)) [Ac-CADWVCYWHTFGP-[(D)Lys]-OH],< 500 nM
3,Ac-CTDWVCYWHTFG-NH2 (disulfide 1-6 (inferred)) [Ac-CTDWVCYWHTFG-NH2],< 500 nM
4,H-CRDWQCYWHKFG-NH2 (disulfide 1-6 (inferred)) [Hy-CRDWQCYWHKFG-NH2],< 500 nM
5,Ac-CADWVCYWHTFG-OH (disulfide 1-6 (inferred)) [Ac-CADWVCYWHTFG-OH],< 500 nM
6,Ac-CQTWQCYWRTNG[AEA][dK]-NH2 (disulfide 1-6; SMILES CC(=O)N[C@H]1CSSC[C@@H](C(=O)N[C@@H](Cc2ccc(O)cc2)C(=O)N[C@@H](Cc2c[nH]c3ccccc23)C(=O)N[C@@H](CCCNC(=N)N)C(=O)N[C@H](C(=O)N[C@@H](CC(N)=O)C(=O)NCC(=O)NCCOCC(=O)N[C@H](CCCCN)C(N)=O)[C@@H](C)O)NC(=O)[C@H](CCC(N)=O)NC(=O)[C@H](Cc2c[nH]c3ccccc23)NC(=O)[C@H]([C@@H](C)O)NC(=O)[C@H](CCC(N)=O)NC1=O) [Ac-CQTWQCYWRTNG-[AEA]-[(D)-Lys]-NH2],< 500 nM
7,"Ac-CQTWVCYWRENG[AEA][dK]-NH2 (disulfide 1-6; SMILES CC(=O)N[C@H]1CSSC[C@@H](C(=O)N[C@@H](Cc2ccc(O)cc2)C(=O)N[C@@H](Cc2c[nH]c3ccccc23)C(=O)N[C@@H](CCCNC(=N)N)C(=O)N[C@@H](CCC(=O)O)C(=O)N[C@@H](CC(N)=O)C(=O)NCC(=O)NCCOCC(=O)N[C@H](CCCCN)C(N)=O)NC(=O)[C@H](C(C)C)NC(=O)[C@H](Cc2c[nH]c3ccccc23)NC(=O)[C@H]([C@@H](C)O)NC(=O)[C@H](CCC(N)=O)NC1=O) [Ac-CQTWVCYWRENG-[AEA]-[(D)-Lys]-NH2, listing 2 of 2 here]",< 500 nM
8,Ac-CTTWTCYWHQYG-NH2 (disulfide 1-6 (inferred)) [Ac-CTTWTCYWHQYG-NH2],< 500 nM

# Next, values leading:
row,IC50,Binder
1,< 500 nM,Ac-CADWVCYWHTYG-NH2 (disulfide 1-6 (inferred)) [Ac-CADWVCYWHTYG-NH2]
2,< 500 nM,Ac-CRTWQCYWRKFG[AEA][dK]-NH2 (disulfide 1-6 (inferred)) [Ac-CRTWQCYWRKFG-[AEA]-[(D)-Lys]-NH2]
3,< 500 nM,"Ac-CQTWVCYWRENG[AEA][dK]-NH2 (disulfide 1-6; SMILES CC(=O)N[C@H]1CSSC[C@@H](C(=O)N[C@@H](Cc2ccc(O)cc2)C(=O)N[C@@H](Cc2c[nH]c3ccccc23)C(=O)N[C@@H](CCCNC(=N)N)C(=O)N[C@@H](CCC(=O)O)C(=O)N[C@@H](CC(N)=O)C(=O)NCC(=O)NCCOCC(=O)N[C@H](CCCCN)C(N)=O)NC(=O)[C@H](C(C)C)NC(=O)[C@H](Cc2c[nH]c3ccccc23)NC(=O)[C@H]([C@@H](C)O)NC(=O)[C@H](CCC(N)=O)NC1=O) [Ac-CQTWVCYWRENG-[AEA]-[(D)-Lys]-NH2, listing 1 of 2 here]"
4,< 500 nM,Ac-CRDWQCYWHKFG[PEG1][dK]-OH (disulfide 1-6; SMILES CC(=O)N[C@H]1CSSC[C@@H](C(=O)N[C@@H](Cc2ccc(O)cc2)C(=O)N[C@@H](Cc2c[nH]c3ccccc23)C(=O)N[C@@H](Cc2c[nH]cn2)C(=O)N[C@@H](CCCCN)C(=O)N[C@@H](Cc2ccccc2)C(=O)NCC(=O)NCCOCCC(=O)N[C@H](CCCCN)C(=O)O)NC(=O)[C@H](CCC(N)=O)NC(=O)[C@H](Cc2c[nH]c3ccccc23)NC(=O)[C@H](CC(=O)O)NC(=O)[C@H](CCCNC(=N)N)NC1=O) [Ac-CRDWQCYWHKFG-[AEP]-[(D)Lys]-OH]
5,< 500 nM,H-CSNWVCYWHTYG-NH2 (disulfide 1-6 (inferred)) [Hy-CSNWVCYWHTYG-NH2]
